Test results from IntAct's records for PubMed 21057110.

B1: Arf-GAP with dual PH domain-containing protein 1 (Homo sapiens), O75689 (parent)
chain: MAKERRRAVLELLQRPGNARCADCGAPDPDWASYTLGVFICLSCSGIHRNIPQVSKVKSVRLDAWEEAQVEFMASHGNDAARARFESKVPSFYYRPTPSDCQLLREQWIRAKYERQEFIYPEKQEPYSAGYREGFLWKRGRDNGQFLSRKFVLTEREGALKYFNRNDAKEPKAVMKIEHLNATFQPAKIGHPHGLQVTYLKDNSTRNIFIYHEDGKEIVDWFNALRAARFHYLQVAFPGAGDADLVPKLSRNYLKEGYMEKTGPKQTEGFRKRWFTMDDRRLMYFKDPLDAFARGEVFIGSKESGYTVLHGFPPSTQGHHWPHGITIVTPDRKFLFACETESDQREWVAAFQKAVDRPMLPQEYAVEAHFKHKP

Variants of: B1
Details: with ki13b_human KIF13B

effect of a mutation on the interaction | Variant
disrupting interaction strength | Y211R
disrupting interaction strength | Y211G
